Assay results published in IntAct's records for PubMed 21321230.

B1: Netrin receptor DCC (Rattus norvegicus (Rat)), Q63155 (parent)
chain: MENSLGCVWVPKLAFVLFGASLLSAHLQVTGFQIKPFTSLHFVSEPSDAVTMRGGNVLLNCSAESDRGVPVIKWKKDGLILALGMDDRKQQLPNGSLLIQNILHSRHHKPDEGLYQCEASLGDSGSIISRTAKVMVAGPLRFLSQTESITAFMGDTVLLKCEVIGDPMPTIHWQKNQQDLNPIPGDSRVVVLPSGALQISRLQPGDSGVYRCSARNPASTRTGNEAEVRILSDPGLHRQLYFLQRPSNVIAIEGKDAVLECCVSGYPPPSFTWLRGEEVIQLRSKKYSLLGGSNLLISNVTDDDSGTYTCVVTYKNENISASAELTVLVPPWFLNHPSNLYAYESMDIEFECAVSGKPVPTVNWMKNGDVVIPSDYFQIVGGSNLRILGVVKSDEGFYQCVAENEAGNAQSSAQLIVPKPAIPSSSILPSAPRDVVPVLVSSRFVRLSWRPPAEAKGNIQTFTVFFSREGDNRERALNTTQPGSLQLTVGNLKPEAMYTFRVVAYNEWGPGESSQPIKVATQPELQVPGPVENLHAVSASPTSILITWEPPAYANGPVQGYRLFCTEVSTGKEQNIEVDGLSYKLEGLKKFTEYTLRFLAYNRYGPGVSTDDITVVTLSDVPSAPPQNVSLEVVNSRSIKVSWLPPPSGTQNGFITGYKIRHRKTTRRGEMETLEPNNLWYLFTGLEKGSQYSFQVSAMTVNGTGPPSNWYTAETPENDLDESQVPDQPSSLHVRPQTNCIIMSWTPPLNPNIVVRGYIIGYGVGSPYAETVRVDSKQRYYSIERLESSSHYVISLKAFNNAGEGVPLYESATTRSITDPTDPVDYYPLLDDFPTSGPDVSTPMLPPVGVQAVALTHEAVRVSWADNSVPKNQKTSDVRLYTVRWRTSFSASAKYKSEDTTSLSYTATGLKPNTMYEFSVMVTKNRRSSTWSMTAHATTYEAAPTSAPKDLTVITREGKPRAVIVSWQPPLEANGKITAYILFYTLDKNIPIDDWIMETISGDRLTHQIMDLSLDTMYYFRIQARNAKGVGPLSDPILFRTLKVEHPDKMANDQGRHGDGGYWPVDTNLIDRSTLNEPPIGQMHPPHGSVTPQKNSNLLVITVVTVGVLTVLVVVIVAVICTRRSSAQQRKKRATHSASKRKGSQKDLRPPDLWIHHEEMEMKNIEKPAGTDPAGRGSPIQSCQDLTPVSHSQSESQMGSKSASHSGQDTEEAGSSMSTLERSLAARRATRTKLMIPMEAQSNNPAVVSAIPVPTLESAQYPGILPSPTCGYPHPQFTLRPVPFPTLSVDRGFGAGRTVSEGPTAQQQPMLPPAQPEHPSSEEAPSRTIPTACVRPTHPLRSFANPLLPPPMSAIEPKVPYTPLLSQPGPTLPKTHVKTASLGLAGKARSPLLPVSVPTAPEVSEESHKPTEDPASVYEQDDLSEQMASLEGLMKQLNAITGSAF

Variants of: B1
Conditions: with myo10_human MYO10, Q9HD67
Chain of myo10_human MYO10, Q9HD67 (Q9HD67 whole entry): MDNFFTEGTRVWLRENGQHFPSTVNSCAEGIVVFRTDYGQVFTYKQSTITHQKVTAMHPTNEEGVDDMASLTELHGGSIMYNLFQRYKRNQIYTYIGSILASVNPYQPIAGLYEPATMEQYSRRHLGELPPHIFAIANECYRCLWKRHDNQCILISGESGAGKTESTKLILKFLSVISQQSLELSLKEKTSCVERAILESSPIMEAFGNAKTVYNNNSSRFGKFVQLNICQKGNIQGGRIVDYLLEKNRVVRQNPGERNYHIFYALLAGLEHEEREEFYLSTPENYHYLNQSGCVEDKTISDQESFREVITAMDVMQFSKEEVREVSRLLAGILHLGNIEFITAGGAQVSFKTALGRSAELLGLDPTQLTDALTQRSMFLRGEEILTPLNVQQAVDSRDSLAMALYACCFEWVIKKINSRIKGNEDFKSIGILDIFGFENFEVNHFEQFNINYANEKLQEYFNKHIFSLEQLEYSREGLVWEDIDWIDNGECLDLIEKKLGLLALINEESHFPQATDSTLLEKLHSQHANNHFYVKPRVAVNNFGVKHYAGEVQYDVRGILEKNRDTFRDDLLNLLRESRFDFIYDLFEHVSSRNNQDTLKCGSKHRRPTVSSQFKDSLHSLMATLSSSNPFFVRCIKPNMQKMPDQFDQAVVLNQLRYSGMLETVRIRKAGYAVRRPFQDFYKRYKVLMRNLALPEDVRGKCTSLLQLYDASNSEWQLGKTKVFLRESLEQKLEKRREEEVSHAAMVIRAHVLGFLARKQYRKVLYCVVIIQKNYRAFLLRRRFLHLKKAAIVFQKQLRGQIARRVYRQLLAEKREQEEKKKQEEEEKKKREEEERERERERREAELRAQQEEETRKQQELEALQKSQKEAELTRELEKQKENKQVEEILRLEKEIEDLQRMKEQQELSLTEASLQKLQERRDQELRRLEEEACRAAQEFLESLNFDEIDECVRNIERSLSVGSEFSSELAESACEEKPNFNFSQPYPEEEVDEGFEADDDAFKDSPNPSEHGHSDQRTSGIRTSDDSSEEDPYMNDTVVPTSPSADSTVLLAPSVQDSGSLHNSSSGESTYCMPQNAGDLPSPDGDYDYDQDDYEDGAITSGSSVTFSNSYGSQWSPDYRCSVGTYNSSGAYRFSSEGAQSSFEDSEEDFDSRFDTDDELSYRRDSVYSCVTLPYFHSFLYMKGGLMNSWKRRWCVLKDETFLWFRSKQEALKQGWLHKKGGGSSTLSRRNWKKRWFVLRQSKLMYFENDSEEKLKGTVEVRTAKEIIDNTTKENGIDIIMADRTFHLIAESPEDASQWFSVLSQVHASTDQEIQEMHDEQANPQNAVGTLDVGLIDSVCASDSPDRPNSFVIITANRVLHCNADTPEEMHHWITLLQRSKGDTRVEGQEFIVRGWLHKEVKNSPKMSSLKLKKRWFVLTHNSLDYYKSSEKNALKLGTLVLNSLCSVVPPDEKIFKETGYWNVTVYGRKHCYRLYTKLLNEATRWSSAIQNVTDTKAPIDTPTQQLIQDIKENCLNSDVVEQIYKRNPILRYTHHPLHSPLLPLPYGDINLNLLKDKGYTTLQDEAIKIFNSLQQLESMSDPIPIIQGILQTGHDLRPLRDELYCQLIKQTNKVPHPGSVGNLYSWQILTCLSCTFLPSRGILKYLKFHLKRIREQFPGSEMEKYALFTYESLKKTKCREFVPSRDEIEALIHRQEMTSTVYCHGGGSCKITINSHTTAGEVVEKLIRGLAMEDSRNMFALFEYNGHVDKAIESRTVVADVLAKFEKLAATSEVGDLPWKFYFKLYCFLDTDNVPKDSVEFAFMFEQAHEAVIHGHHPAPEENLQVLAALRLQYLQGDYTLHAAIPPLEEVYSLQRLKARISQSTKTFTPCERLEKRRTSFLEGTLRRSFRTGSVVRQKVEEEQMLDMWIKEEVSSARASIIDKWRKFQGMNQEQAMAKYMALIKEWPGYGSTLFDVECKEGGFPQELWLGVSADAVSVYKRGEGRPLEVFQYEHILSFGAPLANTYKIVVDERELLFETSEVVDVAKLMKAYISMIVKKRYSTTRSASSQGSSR

| Variant | effect of a mutation on the interaction |
| --- | --- |
| L1433A | disrupting interaction strength |
| L1437A | disrupting interaction strength |
